# Experimental data reported in the RNAGym collection of RNA variant scans (doi:10.1073/pnas.2313332121).
# B1: TPR t1 (parent)
# chain: GACCAAUCUGCCCUCAGAGCUCGAGAACAUCUUCGGAUGCAGAGGAGGCAGGCUUCGGUGGCGCGAUAGCGCCAACGUCCUCAACCUCCAAUGCAUCCCACCACAUGAUGAUGCCUGAAGAGCCUUGGUUUUUUG
# Variants of: B1
# Test: polymerase ribozyme fitness, log enrichment relative to wild type (log ratio); higher = more active; in vitro selection for triplet polymerase activity
# Procedure, shortened: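 Only genotypes with ≥10 input reads and ≥1 read per output were kept after Illumina sequencing of input and output libraries. These libraries were PCR-built, transcribed mutants of each subunit of a heterodimeric triplet polymerase ribozyme, each put through one triplicate in vitro selection round with frozen incubation at −7 °C, gel excision of extended constructs, streptavidin-bead capture and RT-PCR. Fitness is a logarithmic ratio of genotype enrichment to wild-type enrichment, from inverse-variance-weighted replicate averages, with the logarithm in base 2.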
row,Variant,polymerase ribozyme fitness (log ratio)
1,A18U C49U A68U U92A U96A G110C,-7.53
2,A18U A66C,-4.55
3,G19C G52A C88A U112G C114A,-6.11
4,G19U G39C C53U C124A,-2.93
5,C20G G60A,-3.55
6,C20U C64U C104A G107C G128A,-6.14
7,G19A C49U G113U,-2.65
8,A18U C49G A91G,-3.84
9,G19A G60A C114A,-1.62
10,A18G G23A C53U U59C C79A G117C U133C,-5.37
11,G19A C76U C124U,-1.46
12,G19A G63A,-3.09
13,C20U U30A G39C C53U C56U G60C U92C G117U A119G,-6.79
14,C20U G69C C94U,-2.8
15,A18U C76A G93C,-4.09
16,U21A C56G C73A C99G G120A U131C,-7.97
17,C20G C114G C115U,-6
18,C20U G36C C89G,-3.93
19,C20U U21C U116C,-2.85
20,C20G U55C G57A A90G,-5.05
21,C20A A24U U54A C115G,-6.69
22,C20U A26C G42U U54G C64U G122A C124A,-6.48
23,G19C C20A,-6.28
24,C20G A26G C64A C70U U78C U112A,-5.93

row,Variant,polymerase ribozyme fitness (log ratio)
1,A18U A29U U54G U78C C89G C114G,-3.24
2,C20A G63A C94A U112A,-2.57
3,C20A G63C,-3.31
4,A18G G19U A46C C56A U87A,-2.82
5,G19A A66U C101U,-4.61
6,C20U G45A,-2.57
7,C20U G45U,-2.33
8,A18U A111G U129A,-4.75
9,G19U A43U G60C C82G,-3.71
10,C20G C62U,-3.29
11,C20A C40U U59A G117U G128C,-4.96
12,C20A G45U C53G C88U A111U U125G,-4.56
13,A18U A26G C56U C123G,-0.0936
14,C20U G44U,-2.46
15,C20A A46U G52A,-3.85
16,G19A C56U C115A,-3.68
17,G19C U55A C64U A66U C104U,-3.86
18,C20U U33A,-5.51
19,G19A U32A A84U,-6.42
20,U21A A41C A90C G93A,-4.16
21,C20U G110U,-3.13
22,C20G U133G,-3.81
23,A18U A50U C99G A100C A108U C124G,-8.04
24,G19A U96A C114A G127U,-3.48

row,Variant,polymerase ribozyme fitness (log ratio)
1,C20G G71A A83C,-5.59
2,A18U C40G,-4.04
3,C20A A46U C72G,-4.27
4,C20A U21A C73G,-4.94
5,A18U A46U C97U A103U G120U C123G,-6.88
6,G19U C76A C85U C124G,-3.5
7,C20A G71U,-2.48
8,C20G C123A,-4.02
9,C20G A37U C62G C70U U112A,-6.02
10,C20U G42A U106A G113C,-2.24
11,C20U G113A,1.4
12,C20U G113C,-2.2
13,A18U G42U G69A A100U C114A G128U,-7.14
14,A18U A68G U81A C123U,-5.83
15,G19U A74U G113A,-2.19
16,U21A C72G A75U C85U,-1.63
17,U21A A50C,-0.532
18,C20U G39U C89U A119U U130G,-4.97
19,C20A G36C U126C,-4.66
20,C20G C40A A66G G71A G93U U112C,-6.06
21,A18U U81A C114A,-3.7
22,C20A U32A C70U G93C,-6.8
23,C20A C22A G69U U81G U96G A121U,-5.24
24,C20U U81C,-1.54

row,Variant,polymerase ribozyme fitness (log ratio)
1,C20A G45U C53G G63C C88U A111U U125G,-5.87
2,G19U A41U G71A,-5.44
3,C20U G52U G61U U87C,-1.96
4,A18U G42C A50U,-3.92
5,C20U A27G C72A C82U A84G U116C,-7.5
6,C20A C114A,-2.56
7,A18U G60U,-1.19
8,A18G G39U,-3.93
9,A18U U30A A37G A108U,-3.64
10,A18G G39A C64A A90G G120C,-5.87
11,G19U A50U C124G,-2.97
12,A18U C73G A100U G113A G128A,-5.47
13,C20U C85A,-3.94
14,G19A C53U,-2.82
15,G19A C73U,-2.61
16,C20U A50U U78C,-1.87
17,G19A C124A U129C,-2.22
18,G19C G42C C124G,-0.406
19,A18G G19A,-1.4
20,G19A U54C C73G C82G C114G,-4.42
21,C20A A84C C88A U92G C114A,-4.5
22,G19A U78C C124A U129C,-1.77
23,C20U G93U,-3.35
24,C20U C28G G69C G110U,-5.16

row,Variant,polymerase ribozyme fitness (log ratio)
1,C20U A83G C101A G117U,-5.42
2,C20U G42U C73U,-2.41
3,C20A C49U C72U U78C,-3.44
4,A18U G113U C114U C124A U130C,-2.93
5,A18U G36U U59C C97G,-4.79
6,G19A G48U C53G G58U U59A,-3.69
7,C20A C53U C72G U126G,-3.99
8,C20U C114G,-1.55
9,G19A C114A,-1.55
10,A18U G48C C49A,-3.25
11,C20A G23A G36A G48A G113A,-7.55
12,A18G U54A C88G A111C G113C U125A,-3.51
13,C20A C34A A41C U109A,-4.4
14,C20G G93C,-4.4
15,C20G U32A C53G U54C G57U C97G G113A,-6.61
16,G19A G47A C88U,-2.72
17,G19C G36C G71U U112G U116C,-3.91
18,G19U C123A,-2.59
19,C20U C49U C56G U78G U81A C86U U133G,-3.51
20,G19U C53G U54A G61A C124A G128A,-3.82
21,C20A U106A C124A,-1.85
22,G19A C101U,-3.3
23,A18U G44A U54A C86U U106A,-5.25
24,G19U G48U C79A C85A G120C U130C,-5.41

row,Variant,polymerase ribozyme fitness (log ratio)
1,A18U G61C G120A,-4.67
2,A18G C70U A95U C124A,-4.13
3,C20A C49A U81A C104U G120C U133A G135U,-2.32
4,C20A U112C,-1.35
5,C20A U112G,-1.72
6,C20G G35U A95C G117U,-4.02
7,C20A U131A,-3.53
8,A18G C101G G117C,-4.66
9,C20U U129A,-2.67
10,C20A C49U G61U C85A,-3.53
11,A18U G42U,-2.23
12,C20U G36U G135U,-2.95
13,C20A G58U G71U C89G,-5.13
14,C20U G71A,-1.94
15,C20G C89U U109G U132C,-3.87
16,C20G C62U U125A,-5.73
17,C20U A43G U78G U87A C89G,-5.4
18,C20A C40A C72U C73U,-4.3
19,G19U G45U A111C,-4.74
20,A18U C62A,-4.11
21,G19A C72U,-3.79
22,G19C C70U,-2.55
23,C20U G77U,-1.15
24,C20U G36A G48C G113A,0.28

row,Variant,polymerase ribozyme fitness (log ratio)
1,A18U G117C,-4.12
2,G19A G77U U81A C114A,-1.67
3,C20U U54A C73A C115G,-3.1
4,A18G G52C,-3.49
5,C20A C56A C72G A90G,-4.82
6,G19C A84G,-3.14
7,A18U C79U C101G,-4.83
8,A18U G63A G110U,-6.24
9,C20G C40U,-2.61
10,A18U C40G A83U,-4.16
11,A18U G57U A100C G120C,-5.42
12,G19U A46C,-3.44
13,C20U C64U C114U A118G U131A,-0.511
14,G19A U38C G63U C114A A121G,-4.24
15,A18U G45C G57C G69U,-1.15
16,C20U C62U U92A C97U,-5.74
17,C20G A43G C89A,-3.78
18,C20A C123G,-0.867
19,U21A C53G C64U U106C,-0.936
20,C20G A90C A95U,-4.06
21,G19A C72U A75U C114A,-2.05
22,C20U C28A,-3.79
23,G19C G45A U78C C82G U112C,-1.42
